Article PMC5090066, “An affinity-directed protein missile system for targeted proteolysis” (Open Biology, 2016)

How the values were obtained:
[1] = biological target: T1, PAWS1-GFP (endogenous PAWS1/FAM83G with a GFP tag knocked in at the C-terminus) (Aequorea victoria GFP (tag on human …, UniProt P42212 = GFP)); experiment: pull-down; aGFP16 tethered to sepharose beads; cell extracts; pull-downs and flow-through extracts analysed; details: one partner purified
T1 construct: PAWS1 (FAM83G), human, expressed from its own locus; GFP tag knocked in around the stop codon of PAWS1; donor construct DU48585; also called protein associated with SMAD1; source: endogenous, homozygous CRISPR/Cas9 knock-in U2OS cells, in cell extract

[2] = biological target: T2, GFP-VPS34 (endogenous VPS34 with a GFP tag knocked in at the N-terminus) (Aequorea victoria GFP (tag on human …, UniProt P42212 = GFP)); experiment: as above; details: one partner purified
T2 construct: GFP tag knocked in around the start codon of VPS34; donor construct DU52175; VPS34, class III phosphatidylinositol 3-kinase, human, expressed from its own locus; also called vacuolar protein sorting 34; source: endogenous, homozygous CRISPR/Cas9 knock-in HEK293 cells, in cell extract

- binding result [1]: binds
- binding result [2]: binds
B1: aGFP16, cameloid anti-GFP nanobody, tethered to sepharose beads (VHH)
VHH: QVQLVESGGRLVQAGDSLRLSCAASGRTFSTSAMAWFRQAPGREREFVAAITWTVGNTILGDSVKGRFTISRDRAKNTVDLQMDNLEPEDTAVYYCSARSRGYVLSVLRSVDSYDYWGQGTQVTVSG
notes: DU54238 is the cDNA in the pBABED/pRetroX vectors
